For experiment [1], the target named is Ptr4CL (endogenous in SDX extract, member not told). Put plainly: cross-linking; crude SDX extract (25 mM sodium phosphate buffer, pH 7.4) cross-linked with DSP, SDS-PAGE, western blot with PtrHCT1 and PtrHCT6 specific antibodies. Background: In western blotting, separated proteins are transferred to a membrane and probed.
Experiment [2] concerns the target Ptr4CL3-6 × His, recombinant (Populus trichocarpa). Put plainly: cross-linking; recombinant Ptr4CL and PtrHCT, 200 nM each in PBS, DSP at 20-fold molar excess, room temperature 5 min, SDS-PAGE, western blot with Ptr4CL3 and PtrHCT1 antibodies.
Experiment [3] has as its target Ptr4CL5-6 × His, recombinant (Populus trichocarpa). The experiment is described as above.

In experiment [1], “PtrHCT6, endogenous in SDX protein extract (enzyme)” came in with a stoichiometry N (PtrHCT per Ptr4CL) of 2.

Consider PtrHCT1-6 × His, recombinant (enzyme), for which the stoichiometry N (PtrHCT per Ptr4CL) in experiment [2] and in experiment [3] was 2 in each case.

As to PtrHCT6-6 × His, recombinant (enzyme), the stoichiometry N (PtrHCT per Ptr4CL) in experiment [2] is 2.

In turn, “PtrHCT1, endogenous in SDX protein extract (enzyme)” registered a stoichiometry N (PtrHCT per Ptr4CL) in experiment [1] of 2.

The values are drawn from PMC8527181.
